Measurements from patent US20260008817A1, “CYCLIC PEPTIDE OR SALT THEREOF, AND USES THEREOF” (FUJIFILM Corporation, priority 2023, published 2026).
Positions of bridges follow the written chain, without caps; N, C: chain ends. Non-standard residues stand in square brackets, D forms with d. No end group written: not given here. COCH2 = acetyl group that carries the bridge; NMeL = CN[C@@H](CC(C)C)C(=O)O; hLeu = CC(C)CC[C@H](N)C(=O)O; hCys = N[C@@H](CCS)C(=O)O; Orn = NCCC[C@H](N)C(=O)O; Dab = NCC[C@H](N)C(=O)O; Dap = NC[C@H](N)C(=O)O

B1: cyclic peptide SEQ ID NO: 329 (peptide)
peptide: A[hCys]VWTFDRHAQEISQALH[Dab](COCH2)VKKK
modifications: thioether 2-19
B2: cyclic peptide SEQ ID NO: 334 (peptide)
peptide: A[Dap](COCH2)VWTFDRHAQEISQALH[hCys]VKKK
modifications: thioether 2-19
B3: cyclic peptide SEQ ID NO: 330 (peptide)
peptide: A[hCys]VWTFDRHAQEISQALH[Dap](COCH2)VKKK
modifications: thioether 2-19
B4: cyclic peptide SEQ ID NO: 338 (peptide)
peptide: FXVYTFDAHAHSLDAALNXIKKK
modifications: (Orn(propyl)) and (Hcy) homocysteine joined by a thioether ring
B5: cyclic peptide SEQ ID NO: 332 (peptide)
peptide: A[Orn](COCH2)VWTFDRHAQEISQALH[hCys]VKKK
modifications: thioether 2-19
B6: cyclic peptide SEQ ID NO: 328 (peptide)
peptide: A[hCys]VWTFDRHAQEISQALH[Orn](COCH2)VKKK
modifications: thioether 2-19
B7: cyclic peptide SEQ ID NO: 333 (peptide)
peptide: A[Dab](COCH2)VWTFDRHAQEISQALH[hCys]VKKK
modifications: thioether 2-19
B8: cyclic peptide SEQ ID NO: 327 (peptide)
peptide: A[hCys]VWTFDRHAQEISQALHK(COCH2)VKKK
modifications: thioether 2-19
B9: cyclic peptide SEQ ID NO: 337 (peptide)
peptide: F[Orn](COCH2)VYTFDAHAHSLDAALN[hCys]IKKK
modifications: thioether 2-19
B10: cyclic peptide SEQ ID NO: 340 (peptide)
peptide: F[Orn](COCH2)VYTFDAHAHS[hLeu]DAALN[hCys]IKKK
modifications: thioether 2-19
B11: cyclic peptide SEQ ID NO: 339 (peptide)
peptide: F[Orn](COCH2)VYTFDAHAHS[NMeL]DAALN[hCys]IKKK
modifications: thioether 2-19
B12: cyclic peptide SEQ ID NO: 341 (peptide)
peptide: [Orn](COCH2)VYTFDAHAHSLDAALN[hCys]IKKK
modifications: thioether 1-18
B13: cyclic peptide SEQ ID NO: 342 (peptide)
peptide: F[Orn](COCH2)VYTFDAHAHSLDAALN[hCys]KKK
modifications: thioether 2-19
B14: cyclic peptide SEQ ID NO: 331 (peptide)
peptide: AK(COCH2)VWTFDRHAQEISQALH[hCys]VKKK
modifications: thioether 2-19

What follows are molecules tested against Recombinant Human FGFR1 alpha (IIIc) Fc Chimera Protein, CF (R&D systems, 658-FR-050) (human) (UniProt P11362) (assay: SPR grade, peptide 10 nmol/L over FGFR1-Fc). Details: scale: moleculesofcyclicpeptide/onemoleculeoffgfr.
Chain of Recombinant Human FGFR1 alpha (IIIc) Fc Chimera Protein, CF (R&D systems, 658-FR-050) (human) (P11362 22-376, change not shown): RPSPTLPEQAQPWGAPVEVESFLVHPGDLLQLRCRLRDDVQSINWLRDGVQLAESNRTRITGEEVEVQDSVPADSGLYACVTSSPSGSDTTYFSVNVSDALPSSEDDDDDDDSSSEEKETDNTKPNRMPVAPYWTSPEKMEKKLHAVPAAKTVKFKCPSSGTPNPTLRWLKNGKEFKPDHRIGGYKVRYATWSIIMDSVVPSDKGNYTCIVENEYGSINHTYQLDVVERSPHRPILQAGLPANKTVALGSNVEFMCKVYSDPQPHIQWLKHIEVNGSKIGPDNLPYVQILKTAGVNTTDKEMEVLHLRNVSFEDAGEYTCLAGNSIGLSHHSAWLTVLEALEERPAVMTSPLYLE

Molecule	binding amount (SPR, molecules of cyclic peptide bound per one molecule of FGFR at 10 nmol/L peptide)
B1	0.5 to 0.7
B2	> 0.7
B3	> 0.7
B4	0.1 to 0.5
B5	> 0.7
B6	> 0.7
B7	> 0.7
B8	> 0.7
B9	0.1 to 0.5
B10	0.5 to 0.7
B11	0.1 to 0.5
B12	0.1 to 0.5
B13	0.1 to 0.5
B14	0.5 to 0.7

What follows are molecules tested against T1, Recombinant Human FGFR1 alpha (IIIc) Fc Chimera Protein (Homo sapiens, UniProt P11362) (assay: ELISA binding affinity of enzymatically synthesized peptide to FGFR). Details: ELISA luminescence signal at 10 nmol/L peptide, SEQ ID NO: 239 standardized to 1; enzyme synthesis product.
T1 construct: purchased R&D systems 658-FR-050
Outline: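 Cell-free PUREfrex-translated cyclic peptides (Myc/HiBiT-tagged, quantified by HiBiT luminescence) bound 3 h at room temperature to immobilized FGFR1α(IIIc)-Fc, detected with anti-Myc and chemiluminescence. FGFR-specific signal at 10 nmol/L normalized to a reference cyclic peptide and graded A–D.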

T1 sequence (P11362 with tags, fused parts or gaps limits assumed): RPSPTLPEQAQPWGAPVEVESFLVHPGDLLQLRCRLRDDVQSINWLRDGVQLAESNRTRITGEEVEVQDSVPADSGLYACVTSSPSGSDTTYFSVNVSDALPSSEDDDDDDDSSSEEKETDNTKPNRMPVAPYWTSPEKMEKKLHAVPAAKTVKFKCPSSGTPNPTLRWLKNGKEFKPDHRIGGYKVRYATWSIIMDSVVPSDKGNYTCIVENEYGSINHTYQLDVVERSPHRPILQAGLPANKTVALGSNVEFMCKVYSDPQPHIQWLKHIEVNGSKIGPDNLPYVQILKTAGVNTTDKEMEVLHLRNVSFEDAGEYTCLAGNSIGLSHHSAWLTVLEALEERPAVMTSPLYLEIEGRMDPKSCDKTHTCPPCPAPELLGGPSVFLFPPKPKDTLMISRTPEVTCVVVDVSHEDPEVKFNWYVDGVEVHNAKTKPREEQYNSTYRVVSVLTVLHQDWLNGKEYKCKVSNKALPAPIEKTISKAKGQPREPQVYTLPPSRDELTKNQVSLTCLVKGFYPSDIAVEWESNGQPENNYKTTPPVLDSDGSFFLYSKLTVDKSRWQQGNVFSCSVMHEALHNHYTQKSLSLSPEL

Molecule	Evaluation result of binding affinity to FGFR
293 (ICVYTFDAHAHSLDAALTK(COCH2)V; thioether 2-19 (inferred)) [compound 293]	A (0.7 or more)
294 (ICVYTFDAHAHSLDAALTK(COCH2)Q; thioether 2-19 (inferred)) [compound 294]	A (0.7 or more)
295 (ICVYTFDAHAHSLDAALNKV; not fully specified (residue 19, bridges)) [compound 295]	A (0.7 or more)
296 (ICVYTFDAHAHSLDAALNKQ; not fully specified (residue 19, bridges)) [compound 296]	A (0.7 or more)
297 (ICVYTFDAHAHSLHDALNK(COCH2)I; thioether 2-19 (inferred)) [compound 297]	A (0.7 or more)
298 (ICVYTFDAHAHSLHDALTK(COCH2)V; thioether 2-19 (inferred)) [compound 298]	A (0.7 or more)
299 (ICVYTFDAHAHSLHDALTK(COCH2)Q; thioether 2-19 (inferred)) [compound 299]	A (0.7 or more)
300 (ICVYTFDAHAHSLHDALNK(COCH2)V; thioether 2-19 (inferred)) [compound 300]	A (0.7 or more)
301 (ICVYTFDAHAHSLHDALNK(COCH2)Q; thioether 2-19 (inferred)) [compound 301]	A (0.7 or more)
302 (ICVYTFDAHAHSLDDALNK(COCH2)I; thioether 2-19 (inferred)) [compound 302]	A (0.7 or more)
303 (ICVYTFDAHAHSLDDALTK(COCH2)V; thioether 2-19 (inferred)) [compound 303]	A (0.7 or more)
304 (ICVYTFDAHAHSLDDALTK(COCH2)Q; thioether 2-19 (inferred)) [compound 304]	A (0.7 or more)
305 (ICVYTFDAHAHSLDDALNK(COCH2)V; thioether 2-19 (inferred)) [compound 305]	A (0.7 or more)
306 (ICVYTFDAHAHSLDDALNK(COCH2)Q; thioether 2-19 (inferred)) [compound 306]	A (0.7 or more)
307 (FCVYTFDAHAHSLDAALTK(COCH2)I; thioether 2-19 (inferred)) [compound 307]	A (0.7 or more)
308 (FCVYTFDAHAHSLHDALTK(COCH2)I; thioether 2-19 (inferred)) [compound 308]	A (0.7 or more)
309 (FCVYTFDAHAHSLDDALTK(COCH2)I; thioether 2-19 (inferred)) [compound 309]	A (0.7 or more)

Molecule	Evaluation result of binding affinity to FGFR
310 (ICVYTFDAHAQSLDAALTK(COCH2)I; thioether 2-19 (inferred)) [compound 310]	A (0.7 or more)
311 (ICVYTFDAHAQSLHDALTK(COCH2)I; thioether 2-19 (inferred)) [compound 311]	A (0.7 or more)
312 (ICVYTFDAHAQSLDDALTK(COCH2)I; thioether 2-19 (inferred)) [compound 312]	A (0.7 or more)
313 (FCVYTFDAHAHSLDAALNK(COCH2)I; thioether 2-19 (inferred)) [compound 313]	A (0.7 or more)
314 (FCVYTFDAHAHSLHDALNK(COCH2)I; thioether 2-19 (inferred)) [compound 314]	A (0.7 or more)
315 (FCVYTFDAHAHSLDDALNK(COCH2)I; thioether 2-19 (inferred)) [compound 315]	A (0.7 or more)
316 (FCVYTFDAHAHSLDAALTK(COCH2)Q; thioether 2-19 (inferred)) [compound 316]	A (0.7 or more)
317 (FCVYTFDAHAHSLHDALTK(COCH2)Q; thioether 2-19 (inferred)) [compound 317]	A (0.7 or more)
318 (FCVYTFDAHAHSLDDALTK(COCH2)Q; thioether 2-19 (inferred)) [compound 318]	A (0.7 or more)
319 (FCVYTFDAHAHSLDAALNK(COCH2)Q; thioether 2-19 (inferred)) [compound 319]	A (0.7 or more)
320 (FCVYTFDAHAHSLHDALNK(COCH2)Q; thioether 2-19 (inferred)) [compound 320]	A (0.7 or more)
321 (FCVYTFDAHAHSLDDALNK(COCH2)Q; thioether 2-19 (inferred)) [compound 321]	A (0.7 or more)
322 (CVYTFDAHAHSLDAALTK(COCH2)I; thioether 1-18 (inferred)) [compound 322]	A (0.7 or more)
323 (ICVYTFDANAHSLDAALTK(COCH2)I; thioether 2-19 (inferred)) [compound 323]	A (0.7 or more)
324 (ICVYTFDANAHSLHDALTK(COCH2)I; thioether 2-19 (inferred)) [compound 324]	A (0.7 or more)
325 (ICVYTFDANAHSLDDALTK(COCH2)I; thioether 2-19 (inferred)) [compound 325]	A (0.7 or more)
326 (IK(COCH2)VYTFDAHAHSLDAALTCI; thioether 2-19 (inferred)) [compound 326]	B (0.5 or more and less than 0.7)
